Test [1] concerns the target obinutuzumab (GAZYVA). As to the kind of experiment: ELISA; mAb at 1000 and 315 ng/ml captured, ratio of A450 obinutuzumab/rituximab (FIG. 8H).
In test [2] the target is obinutuzumab (GAZYVA). As to the kind of experiment: ELISA; mAb captured by F(ab')2 anti-human F(ab')2, biotinylated dimer, streptavidin-HRP (FIG. 8C). A general note: An ELISA detects its analyte on a solid surface through an enzyme-linked reagent.
Test [3] deals with rituximab. In words: flow cytometry; CD19 B cells in PBMC opsonised with 2.5 µg/ml rituximab, dimer 0.2 µg/ml (FIG. 14F).
In test [4] the target is rituximab. In words: flow cytometry; CD19 B cells in PBMC opsonised with 2.5 µg/ml rituximab, dimer 0.2 µg/ml (FIG. 14E).
In test [5] the target is recombinant human anti-TNP IgG2 (chimeric, TIB142 VH with human IgG2 constant region) (human) [IgG part: P01859]. In words: ELISA; anti-TNP IgG on TNP-BSA, biotinylated dimer; EC50 as IgG concentration (FIG. 3 D, L).

Turning to Human rsFcγRIIIa F158 dimer (receptor), the binding preference over rituximab with obinutuzumab (GAZYVA) [1] was found to be 10 fold; in the test with obinutuzumab (GAZYVA) [2] it was 20 fold.

Human rsFcγRIIIa V158 dimer (receptor) yielded a median fluorescence intensity (MFI) with rituximab [3] of 11000 MFI.

For orientation: EC50 means the concentration giving half of the maximal effect. The substance “Human rsFcγRIIa H131 dimer (from UniProt P12318 34-215) (receptor)” came in with a median fluorescence intensity (MFI) with rituximab [4] of 4000 MFI. Also, in test [5], the EC50 worked out at 0.3 µg/mL.

The values are drawn from patent US20180284130A1.
